Data: paper PMC2148210 (The Journal of Cell Biology, 1999)

Target: microtubules assembled from bovine brain phosphocellulose-tubulin with taxol (bovine, UniProt Q6B856 1-445)
Assay: co-sedimentation

microtubules assembled from bovine brain phosphocellulose-tubulin with taxol, sequence (Q6B856 whole entry, looked up): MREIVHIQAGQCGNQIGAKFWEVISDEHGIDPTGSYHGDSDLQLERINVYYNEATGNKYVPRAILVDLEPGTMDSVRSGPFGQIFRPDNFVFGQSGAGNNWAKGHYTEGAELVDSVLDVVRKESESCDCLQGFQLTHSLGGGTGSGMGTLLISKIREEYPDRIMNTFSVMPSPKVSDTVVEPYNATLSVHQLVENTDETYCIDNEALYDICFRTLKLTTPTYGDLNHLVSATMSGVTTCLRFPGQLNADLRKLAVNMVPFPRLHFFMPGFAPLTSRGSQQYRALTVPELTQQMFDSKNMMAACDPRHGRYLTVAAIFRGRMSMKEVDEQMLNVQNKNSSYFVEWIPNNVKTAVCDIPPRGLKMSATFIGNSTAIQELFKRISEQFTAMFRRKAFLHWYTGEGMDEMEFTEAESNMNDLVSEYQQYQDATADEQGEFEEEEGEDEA

fold increase of bound protein, sheared against unsheared microtubules: 1.8 fold
B1: GMAP-210 (Golgi microtubule-associated protein 210), endogenous (natural protein, human (endogenous in HeLa), UniProt Q15643 1-1979, looked up)
chain: MSSWLGGLGSGLGQSLGQVGGSLASLTGQISNFTKDMLMEGTEEVEAELPDSRTKEIEAIHAILRSENERLKKLCTDLEEKHEASEIQIKQQSTSYRNQLQQKEVEISHLKARQIALQDQLLKLQSAAQSVPSGAGVPATTASSSFAYGISHHPSAFHDDDMDFGDIISSQQEINRLSNEVSRLESEVGHWRHIAQTSKAQGTDNSDQSEICKLQNIIKELKQNRSQEIDDHQHEMSVLQNAHQQKLTEISRRHREELSDYEERIEELENLLQQGGSGVIETDLSKIYEMQKTIQVLQIEKVESTKKMEQLEDKIKDINKKLSSAENDRDILRREQEQLNVEKRQIMEECENLKLECSKLQPSAVKQSDTMTEKERILAQSASVEEVFRLQQALSDAENEIMRLSSLNQDNSLAEDNLKLKMRIEVLEKEKSLLSQEKEELQMSLLKLNNEYEVIKSTATRDISLDSELHDLRLNLEAKEQELNQSISEKETLIAEIEELDRQNQEATKHMILIKDQLSKQQNEGDSIISKLKQDLNDEKKRVHQLEDDKMDITKELDVQKEKLIQSEVALNDLHLTKQKLEDKVENLVDQLNKSQESNVSIQKENLELKEHIRQNEEELSRIRNELMQSLNQDSNSNFKDTLLKEREAEVRNLKQNLSELEQLNENLKKVAFDVKMENEKLVLACEDVRHQLEECLAGNNQLSLEKNTIVETLKMEKGEIEAELCWAKKRLLEEANKYEKTIEELSNARNLNTSALQLEHEHLIKLNQKKDMEIAELKKNIEQMDTDHKETKDVLSSSLEEQKQLTQLINKKEIFIEKLKERSSKLQEELDKYSQALRKNEILRQTIEEKDRSLGSMKEENNHLQEELERLREEQSRTAPVADPKTLDSVTELASEVSQLNTIKEHLEEEIKHHQKIIEDQNQSKMQLLQSLQEQKKEMDEFRYQHEQMNATHTQLFLEKDEEIKSLQKTIEQIKTQLHEERQDIQTDNSDIFQETKVQSLNIENGSEKHDLSKAETERLVKGIKERELEIKLLNEKNISLTKQIDQLSKDEVGKLTQIIQQKDLEIQALHARISSTSHTQDVVYLQQQLQAYAMEREKVFAVLNEKTRENSHLKTEYHKMMDIVAAKEAALIKLQDENKKLSTRFESSGQDMFRETIQNLSRIIREKDIEIDALSQKCQTLLAVLQTSSTGNEAGGVNSNQFEELLQERDKLKQQVKKMEEWKQQVMTTVQNMQHESAQLQEELHQLQAQVLVDSDNNSKLQVDYTGLIQSYEQNETKLKNFGQELAQVQHSIGQLCNTKDLLLGKLDIISPQLSSASLLTPQSAECLRASKSEVLSESSELLQQELEELRKSLQEKDATIRTLQENNHRLSDSIAATSELERKEHEQTDSEIKQLKEKQDVLQKLLKEKDLLIKAKSDQLLSSNENFTNKVNENELLRQAVTNLKERILILEMDIGKLKGENEKIVETYRGKETEYQALQETNMKFSMMLREKEFECHSMKEKALAFEQLLKEKEQGKTGELNQLLNAVKSMQEKTVVFQQERDQVMLALKQKQMENTALQNEVQRLRDKEFRSNQELERLRNHLLESEDSYTREALAAEDREAKLRKKVTVLEEKLVSSSNAMENASHQASVQVESLQEQLNVVSKQRDETALQLSVSQEQVKQYALSLANLQMVLEHFQQEEKAMYSAELEKQKQLIAEWKKNAENLEGKVISLQECLDEANAALDSASRLTEQLDVKEEQIEELKRQNELRQEMLDDVQKKLMSLANSSEGKVDKVLMRNLFIGHFHTPKNQRHEVLRLMGSILGVRREEMEQLFHDDQGGVTRWMTGWLGGGSKSVPNTPLRPNQQSVVNSSFSELFVKFLETESHPSIPPPKLSVHDMKPLDSPGRRKRDTNAPESFKDTAESRSGRRTDVNPFLAPRSAAVPLINPAGLGPGGPGHLLLKPISDVLPTFTPLPALPDNSAGVVLKDLLKQ
